This is an account of results in the Human Domainome abundance scans (Beltran et al. 2025).

± gives the uncertainty stated by the source.

The labels stand for the following.
B1: POU domain, class 3, transcription factor 2, residues 356 to 411; numbered along this chain, P20265 (parent)
chain: KKRTSIEVSVKGALESHFLKCPKPSAQEITSLADSLQLEKEVVRVWFCNRRQKEKR

This data set covers variants of B1. The data set is described as follows: abundance fitness (aPCA) (normalised: wild type 0, dead -1); higher = more abundant; growth selection in yeast, the domain comes from the species named. Particulars: Homo sapiens.
On to KKRTSIEVSVKGGLESHFLKCPKPSAQEITSLADSLQLEKEVVRVWFCNRRQKEKR, for which the abundance fitness was -0.379 ± 0.088.
Take KKRTSIEVSVKGQLESHFLKCPKPSAQEITSLADSLQLEKEVVRVWFCNRRQKEKR: the abundance fitness was found to be 0.011 ± 0.14.
With KKRTSIEVSVKGTLESHFLKCPKPSAQEITSLADSLQLEKEVVRVWFCNRRQKEKR, the abundance fitness is -0.064 ± 0.12.
Consider KKRTSIEVSVKGWLESHFLKCPKPSAQEITSLADSLQLEKEVVRVWFCNRRQKEKR, for which the abundance fitness is -0.422 ± 0.11.
With KKRTSIEVSVKGPLESHFLKCPKPSAQEITSLADSLQLEKEVVRVWFCNRRQKEKR, the abundance fitness was -0.442 ± 0.19.
The figure for KKRTSIEVSVKGLLESHFLKCPKPSAQEITSLADSLQLEKEVVRVWFCNRRQKEKR is -0.074 ± 0.084.
The figure for KKRTSIEVSVKGNLESHFLKCPKPSAQEITSLADSLQLEKEVVRVWFCNRRQKEKR is -0.211 ± 0.16.
With KKRTSIEVSVKGVLESHFLKCPKPSAQEITSLADSLQLEKEVVRVWFCNRRQKEKR, the abundance fitness was 0.042 ± 0.097.
Take KKRTSIEVSVKGKLESHFLKCPKPSAQEITSLADSLQLEKEVVRVWFCNRRQKEKR: the abundance fitness came to 0.081 ± 0.15.
Take KKRTSIEVSVKGSLESHFLKCPKPSAQEITSLADSLQLEKEVVRVWFCNRRQKEKR: the abundance fitness was -0.162 ± 0.09.
The figure for KKRTSIEVSVKGDLESHFLKCPKPSAQEITSLADSLQLEKEVVRVWFCNRRQKEKR is -0.356 ± 0.12; for KKRTSIEVSVKGMLESHFLKCPKPSAQEITSLADSLQLEKEVVRVWFCNRRQKEKR it is 0.024 ± 0.14.
The figure for KKRTSIEVSVKSALESHFLKCPKPSAQEITSLADSLQLEKEVVRVWFCNRRQKEKR is 0.097 ± 0.082; for KKRTSIEVSVKRALESHFLKCPKPSAQEITSLADSLQLEKEVVRVWFCNRRQKEKR it is -0.045 ± 0.084; for KKRTSIEVSVKVALESHFLKCPKPSAQEITSLADSLQLEKEVVRVWFCNRRQKEKR it is 0.22 ± 0.086.
Turning to KKRTSIEVSVKFALESHFLKCPKPSAQEITSLADSLQLEKEVVRVWFCNRRQKEKR, the abundance fitness is -0.085 ± 0.17.
For the variant KKRTSIEVSVKYALESHFLKCPKPSAQEITSLADSLQLEKEVVRVWFCNRRQKEKR, the abundance fitness is -0.058 ± 0.15.
In the case of KKRTSIEVSVKLALESHFLKCPKPSAQEITSLADSLQLEKEVVRVWFCNRRQKEKR it was 0.117 ± 0.084.
In the case of KKRTSIEVSVKEALESHFLKCPKPSAQEITSLADSLQLEKEVVRVWFCNRRQKEKR it was 0.079 ± 0.13; in that of KKRTSIEVSVKKALESHFLKCPKPSAQEITSLADSLQLEKEVVRVWFCNRRQKEKR, -0.056 ± 0.15.
In the case of KKRTSIEVSVKHALESHFLKCPKPSAQEITSLADSLQLEKEVVRVWFCNRRQKEKR it was -0.015 ± 0.099; in that of KKRTSIEVSVKAALESHFLKCPKPSAQEITSLADSLQLEKEVVRVWFCNRRQKEKR, 0.124 ± 0.093.
With KKRTSIEVSVKPALESHFLKCPKPSAQEITSLADSLQLEKEVVRVWFCNRRQKEKR, the abundance fitness was -0.152 ± 0.11.
Regarding KKRTSIEVSVKDALESHFLKCPKPSAQEITSLADSLQLEKEVVRVWFCNRRQKEKR, the abundance fitness is -0.027 ± 0.093.
KKRTSIEVSVKTALESHFLKCPKPSAQEITSLADSLQLEKEVVRVWFCNRRQKEKR: the abundance fitness worked out at 0.21 ± 0.093.
For KKRTSIEVSVKQALESHFLKCPKPSAQEITSLADSLQLEKEVVRVWFCNRRQKEKR, the abundance fitness is -0.053 ± 0.13.
For KKRTSIEVSVKIALESHFLKCPKPSAQEITSLADSLQLEKEVVRVWFCNRRQKEKR, the abundance fitness stood at 0.193 ± 0.13.
In the case of KKRTSIEVSVKNALESHFLKCPKPSAQEITSLADSLQLEKEVVRVWFCNRRQKEKR, the abundance fitness was -0.153 ± 0.16.
On to KKRTSIEVSVKCALESHFLKCPKPSAQEITSLADSLQLEKEVVRVWFCNRRQKEKR, for which the abundance fitness was determined as 0.039 ± 0.098.
For the variant KKRTSIEVSVKMALESHFLKCPKPSAQEITSLADSLQLEKEVVRVWFCNRRQKEKR, the abundance fitness was found to be 0.068 ± 0.14.
KKRTSIEVSVCGALESHFLKCPKPSAQEITSLADSLQLEKEVVRVWFCNRRQKEKR: the abundance fitness was -0.264 ± 0.13.
Take KKRTSIEVSVVGALESHFLKCPKPSAQEITSLADSLQLEKEVVRVWFCNRRQKEKR: the abundance fitness is 0.026 ± 0.084.
In the case of KKRTSIEVSVFGALESHFLKCPKPSAQEITSLADSLQLEKEVVRVWFCNRRQKEKR, the abundance fitness was -0.139 ± 0.2.
As for KKRTSIEVSVNGALESHFLKCPKPSAQEITSLADSLQLEKEVVRVWFCNRRQKEKR, the abundance fitness was -0.143 ± 0.15.
Take KKRTSIEVSVHGALESHFLKCPKPSAQEITSLADSLQLEKEVVRVWFCNRRQKEKR: the abundance fitness turned out to be 0.031 ± 0.12.
As to KKRTSIEVSVDGALESHFLKCPKPSAQEITSLADSLQLEKEVVRVWFCNRRQKEKR, the abundance fitness came out at 0.099 ± 0.13.
In the case of KKRTSIEVSVRGALESHFLKCPKPSAQEITSLADSLQLEKEVVRVWFCNRRQKEKR it was -0.126 ± 0.082.
KKRTSIEVSVYGALESHFLKCPKPSAQEITSLADSLQLEKEVVRVWFCNRRQKEKR: the abundance fitness was -0.239 ± 0.25.
As for KKRTSIEVSVWGALESHFLKCPKPSAQEITSLADSLQLEKEVVRVWFCNRRQKEKR, the abundance fitness is -0.039 ± 0.13.
The figure for KKRTSIEVSVAGALESHFLKCPKPSAQEITSLADSLQLEKEVVRVWFCNRRQKEKR is -0.094 ± 0.091; for KKRTSIEVSVTGALESHFLKCPKPSAQEITSLADSLQLEKEVVRVWFCNRRQKEKR it is -0.027 ± 0.11.
The figure for KKRTSIEVSVLGALESHFLKCPKPSAQEITSLADSLQLEKEVVRVWFCNRRQKEKR is 0.03 ± 0.087.
As for KKRTSIEVSVIGALESHFLKCPKPSAQEITSLADSLQLEKEVVRVWFCNRRQKEKR, the abundance fitness amounted to 0.074 ± 0.13.
In the case of KKRTSIEVSVMGALESHFLKCPKPSAQEITSLADSLQLEKEVVRVWFCNRRQKEKR it was -0.041 ± 0.12; in that of KKRTSIEVSVPGALESHFLKCPKPSAQEITSLADSLQLEKEVVRVWFCNRRQKEKR, -0.269 ± 0.13.
With KKRTSIEVSVGGALESHFLKCPKPSAQEITSLADSLQLEKEVVRVWFCNRRQKEKR, the abundance fitness is -0.134 ± 0.091.
The figure for KKRTSIEVSVEGALESHFLKCPKPSAQEITSLADSLQLEKEVVRVWFCNRRQKEKR is 0.038 ± 0.11.
